Assay results as given in publication PMC2920321, “Characterization of ftsZ Mutations that Render Bacillus subtilis Resistant to MinC” (PLoS ONE, 2010).

Biological target: the molecule itself
Assay: sedimentation of polymers by ultracentrifugation; FtsZ 10 µM, pH 6.5 buffer, with ZapA (10 µM), without DEAE-dextran

B1: FtsZ8 (FtsZ S219L) (natural protein, B. subtilis, UniProt P17865 1-382, looked up)
chain: MLEFETNIDGLASIKVIGVGGGGNNAVNRMIENEVQGVEYIAVNTDAQALNLSKAEVKMQIGAKLTRGLGAGANPEVGKKAAEESKEQIEEALKGADMVFVTAGMGGGTGTGAAPVIAQIAKDLGALTVGVVTRPFTFEGRKRQLQAAGGISAMKEAVDTLIVIPNDRILEIVDKNTPMLEAFREADNVLRQGVQGISDLIATPGLINLDFADVKTIMLNKGSALMGIGIATGENRAAEAAKKAISSPLLEAAIDGAQGVLMNITGGTNLSLYEVQEAADIVASASDQDVNMIFGSVINENLKDEIVVTVIATGFIEQEKDVTKPQRPSLNQSIKTHNQSVPKREPKREEPQQQNTVSRHTSQPADDTLDIPTFLRNRNKRG
notes: FtsZ, Bacillus subtilis, mutant ftsZ8; source: overexpression plasmid pSG5333 (Ptac-ftsZ8, derivative of pCXZ); purified essentially as described [21]
Q: Does B1 bind?
A: Result: binds
